Variants at the floor of the assay were thinned out.
Assays:
biotinyl-Phe-oxazolone = test: self-aminoacylation, catalytic enhancement (BFO) (fold over background); higher = more active; k-Seq, kA / k0A0; sequences stand for … in GGGAAUGGAUCCACAUCUACGAAUUC…UUCACUGCAGACUUGACGAAGCUG
In short: (§1)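 Mutagenized RNA pools (0.43 μM; 21-nt variable region) were treated with 2–1250 μM of each biotinyl-aminoacyl-oxazolone. Conditions were 50 μL HEPES/NaCl/KCl/MgCl2/CaCl2 buffer, 5% acetonitrile, pH 6.9–7.0, room temperature, 90 minutes. Catalytic enhancement, the median kA relative to the uncatalyzed rate, was derived from streptavidin capture, qPCR and Illumina sequencing.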

biotinyl-Ile-oxazolone = test: self-aminoacylation, catalytic enhancement (BIO) (fold over background); higher = more active; k-Seq, kA / k0A0; sequences stand for … in GGGAAUGGAUCCACAUCUACGAAUUC…UUCACUGCAGACUUGACGAAGCUG
In short: as §1

biotinyl-Met-oxazolone = test: self-aminoacylation, catalytic enhancement (BMO) (fold over background); higher = more active; k-Seq, kA / k0A0; sequences stand for … in GGGAAUGGAUCCACAUCUACGAAUUC…UUCACUGCAGACUUGACGAAGCUG
In short: as §1

biotinyl-Val-oxazolone = test: self-aminoacylation, catalytic enhancement (BVO) (fold over background); higher = more active; k-Seq, kA / k0A0; sequences stand for … in GGGAAUGGAUCCACAUCUACGAAUUC…UUCACUGCAGACUUGACGAAGCUG
In short: as §1

biotinyl-Leu-oxazolone = test: self-aminoacylation, catalytic enhancement (BLO) (fold over background); higher = more active; k-Seq, kA / k0A0; sequences stand for … in GGGAAUGGAUCCACAUCUACGAAUUC…UUCACUGCAGACUUGACGAAGCUG
In short: as §1

biotinyl-Trp-oxazolone = test: self-aminoacylation, catalytic enhancement (BWO) (fold over background); higher = more active; k-Seq, kA / k0A0; sequences stand for … in GGGAAUGGAUCCACAUCUACGAAUUC…UUCACUGCAGACUUGACGAAGCUG
In short: as §1

| Sequence | self-aminoacylation (biotinyl-Phe-oxazolone) | self-aminoacylation (biotinyl-Ile-oxazolone) | self-aminoacylation (biotinyl-Met-oxazolone) | self-aminoacylation (biotinyl-Val-oxazolone) | self-aminoacylation (biotinyl-Leu-oxazolone) | self-aminoacylation (biotinyl-Trp-oxazolone) |
| --- | --- | --- | --- | --- | --- | --- |
| AUUCACCUCGGCCAUCGGGUG [Fam2.2 aminoacylation ribozyme variant] | 56.7 | 4.23 | 6.8 | 5.61 | 7.44 | 6.78 |
| AUUCACCUCGGUCACCGGGUG [Fam2.2 aminoacylation ribozyme variant] | 41.9 | 5 | 6.37 | 4.43 | 6.77 | 8.88 |
| AUUCACCUCGGUCAUGGGGUG [Fam2.2 aminoacylation ribozyme variant] | 28 | 2.57 | 3.94 | 2.96 | 4.31 | 4.7 |
| AUUCACCUCGGUCAUUGGGUG [Fam2.2 aminoacylation ribozyme variant] | 35.5 | 3.14 | 4.91 | 2.91 | 5.53 | 4.34 |
| AUUCACCUCGGUCCUCGGGUG [Fam2.2 aminoacylation ribozyme variant] | 53.2 | 4.17 | 6.33 | 4.23 | 7.19 | 7.07 |
| AUUCACCUCGGUGAUCGGGUG [Fam2.2 aminoacylation ribozyme variant] | 28.3 | 4.21 | 4.66 | 4.6 | 5.47 | 6 |
| AUUCACCUGGGUCAUCGAGUG [Fam2.2 aminoacylation ribozyme variant] | 3.55 | 2.4 | 3.54 | 2.59 | 4.18 | 3.74 |
| AUUCACCUGGGUCAUUGGGUG [Fam2.2 aminoacylation ribozyme variant] | 31.1 | 3.51 | 4.52 | 4.03 | 6.07 | 4.15 |
| AUUCACCUGGGUCUUCGGGUG [Fam2.2 aminoacylation ribozyme variant] | 38.6 | 4.14 | 5.53 | 5.01 | 7.31 | 5.25 |
| AUUCACCUGGUCAUCGAGUGA [Fam2.1 aminoacylation ribozyme variant] | 9.12 | 3.55 | 5.88 | 3.58 | 5.93 | 8.2 |
| AUUCACCUUAGUCAUCGGGUG [Fam2.2 aminoacylation ribozyme variant] | 38.8 | 3.73 | 6.02 | 3.83 | 7.94 | 5.66 |
| AUUCACCUUGGGCAUCGGGUG [Fam2.2 aminoacylation ribozyme variant] | 22.9 | 3.58 | 3.99 | 3.69 | 4.33 | 5.41 |
| AUUCACCUUGGUAAUCGGGUG [Fam2.2 aminoacylation ribozyme variant] | 24.4 | 2.23 | 3.95 | 2.35 | 5.19 | 3.98 |
| AUUCACCUUGGUCACCGGGUG [Fam2.2 aminoacylation ribozyme variant] | 27.5 | 4.82 | 5.58 | 4.2 | 6.72 | 5.4 |
| AUUCACCUUGGUCAUCCGGUG [Fam2.2 aminoacylation ribozyme variant] | 60.2 | 6.27 | 8.93 | 6.17 | 11.5 | 7.75 |
| AUUCACCUUGGUCAUCGCGUG [Fam2.2 aminoacylation ribozyme variant] | 117 | 8.37 | 15.3 | 8.42 | 18.2 | 14.1 |
| AUUCACCUUGGUCAUCGGCUG [Fam2.2 aminoacylation ribozyme variant] | 7.58 | 1.64 | 1.52 | 2.19 | 1.7 | 1.66 |
| AUUCACCUUGGUCAUCGGGCG [Fam2.2 aminoacylation ribozyme variant] | 3.77 | 2.74 | 2.81 | 2.77 | 3.24 | 2.93 |
| AUUCACCUUGGUCAUCGGGUG [Fam2.2 aminoacylation ribozyme variant] | 55.7 | 4.71 | 7.9 | 4.97 | 9.96 | 7.43 |
| AUUCACCUUGGUCAUCGGGUU [Fam2.2 aminoacylation ribozyme variant] | 8.05 | 1.67 | 1.84 | 2.08 | 2.38 | 2.14 |
| AUUCACCUUGGUCAUGGGGUG [Fam2.2 aminoacylation ribozyme variant] | 26.8 | 2.91 | 4.32 | 3.36 | 6.08 | 4.27 |
| AUUCACCUUGGUCAUUGGGUG [Fam2.2 aminoacylation ribozyme variant] | 21.4 | 2.11 | 2.9 | 2.17 | 3.56 | 3.18 |

From the supplement of paper PMC9233669
